Measurements from patent publication US20150216795A1 (SANOFI, priority 2012, published 2015).

Legend:
[1] = test system: patients with metastatic colorectal cancer (MCRC)
Description: Each randomized patient was to be treated until disease progression, death, or unacceptable toxicity.
Treatment arms were evenly balanced for demographics, disease characteristics and prior anti-cancer treatments, including prior exposition to bevacizumab.
Patients received a median of 9 cycles of ZALTRAP/FOLFIRI or 8 cycles of placebo/FOLFIRI.

[2] = test system: colorectal, pancreatic, and lung cancer populations; assay: Three Phase 3 placebo-controlled clinical studies, GI perforation; assay type: in vivo, human; details: across three Phase 3 placebo-controlled studies
Description: Gastrointestinal (GI) perforation including fatal GI perforation can occur in patients receiving ZALTRAP. Across three Phase 3 placebo-controlled clinical studies (colorectal, pancreatic, and lung cancer populations), the incidence of GI perforation (all grades) was 0.8% for patients treated with ZALTRAP and 0.3% for patients treated with placebo. Grade 3-4 GI perforation events occurred in 0.8% of patients treated with ZALTRAP and 0.2% of patients treated with placebo.

[3] = test system: patients with various cancers; assay: Immunogenicity, anti-product antibody (APA) across 15 studies; assay type: in vivo, human
Description: As with all therapeutic proteins, there is a potential for immunogenicity. In patients with various cancers across 15 studies, 1.4% (41/2862) of patients tested positive for anti-product antibody (APA) at baseline. […] Among patients who tested positive for APA and had sufficient samples for further testing, neutralizing antibodies were detected in 17 of 48 ziv-aflibercept-treated patients and in 2 of 40 patients receiving placebo.
Immunogenicity data are highly dependent on the sensitivity and specificity of the assay. Additionally, the observed incidence of antibody positivity in an assay may be influenced by several factors, including sample handling, timing of sample collection, concomitant medications, and underlying disease. For these reasons, comparison of the incidence of antibodies to ZALTRAP with the incidence of antibodies to other products may be misleading.

endothelial cells = assay: Endothelial cell proliferation in animals; assay type: in vivo
Description: (§1) This inhibition can result in decreased neovascularization and decreased vascular permeability.

[4] = Population pharmacokinetic analysis; assay type: in vivo, human
Description: There are no data available for patients with severe hepatic impairment.
There is no data available for patients with severe hepatic impairment (total bilirubin>3×ULN and any SGOT/AST).

[5] = test system: xenotransplanted colon tumors; assay: Xenotransplanted colon tumor growth; assay type: in vivo; details: mice
Description: as §1

[6] = test system: patients with solid tumors; assay: Cardiac electrophysiology, QTc study; assay type: in vivo, human; details: 6 mg/kg intravenous every three weeks; 87 patients; large = greater than 20 ms
Experimental: The effect of 6 mg/kg intravenous ZALTRAP every three weeks on QTc interval was evaluated in 87 patients with solid tumors in a randomized, placebo-controlled study. […] However, a small increase in the mean QTc interval (i.e., less than 10 ms) cannot be excluded due to limitations of the study design.

[7] = test system: previously treated patients with metastatic colorectal cancer; details: pre-treated patients with MCRC; cited from earlier work
rabbits = assay: Excisional and incisional skin wound healing models; assay type: in vivo, rabbit; details: for wound healing: repeated administration
[8] = test system: patients with metastatic colorectal cancer (MCRC); assay: EFC10262 (VELOUR) randomized double-blind phase 3 study: efficacy (OS, PFS, response rate);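 also: Placebo-controlled comparison, both arms on FOLFIRI every 2 weeks until progression or intolerable toxicity, in patients progressing on or within 6 months after oxaliplatin-based combination chemotherapy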
Description: Each randomized patient was to be treated until disease progression, death, or unacceptable toxicity. […] The predefined statistical significance level for this final analysis was 0.0466 after adjusting the type I error spent for the two interim analyses using the O'Brien-Fleming spending function.
The study included one formal interim analysis, planned for the purpose of efficacy, when 561 death events (65% information time) had occurred. Upon request of the independent Data Monitoring Committee (DMC), an additional interim analysis of OS was performed to provide an early evaluation of the benefit-risk ratio, when 315 death events (36.5% information fraction) had occurred.
A total of approximately 863 deaths were required to detect 20% hazard rate reduction in OS with 90% power using the two-sided log rank test at an overall 0.0499 alpha level. The median survival times was expected to be 11 months for the control group. The overall alpha level was split between overall survival (0.0499) and progression-free survival as a secondary efficacy endpoint (0.0001).
Approximately 1200 patients (i.e. 600 patients per treatment group) were planned to be randomized. Treatment assignment was stratified according to prior therapy with bevacizumab (yes or no), and ECOG performance status (PS) (0 vs 1 vs 2).
The enrolment started in November 2007 and was completed in March 2010. A total of 1226 patients were randomized. […] Treatment arms were evenly balanced for demographics, disease characteristics and prior anti-cancer treatments, including prior exposition to bevacizumab.
Immediately after, patients received irinotecan, 5-FU and leucovorin (FOLFIRI regimen). This treatment was repeated every 2 weeks.
Study 1 was a randomized, double-blind, placebo-controlled study in patients with metastatic colorectal cancer (mCRC) who are resistant to or have progressed during or within 6 months of receiving oxaliplatin-based combination chemotherapy, with or without prior bevacizumab. A total of 1226 patients were randomized (1:1) to receive either ZALTRAP (N=612; 4 mg per kg as a 1 hour intravenous infusion on day 1) or placebo (N=614), in combination with 5-fluorouracil plus irinotecan [FOLFIRI: irinotecan 180 mg per m2 IV infusion over 90 minutes and leucovorin (dl racemic) 400 mg per m^2 intravenous infusion over 2 hours at the same time on day 1 using a Y-line, followed by 5-FU 400 mg per m^2 intravenous bolus, followed by 5-FU 2400 mg per m^2 continuous intravenous infusion over 46-hours]. The treatment cycles on both arms were repeated every 2 weeks. Patients were treated until disease progression or unacceptable toxicity. The primary efficacy endpoint was overall survival. Treatment assignment was stratified by the ECOG performance status (0 versus 1 versus 2) and according to prior therapy with bevacizumab (yes or no).

[9] = test system: sexually immature cynomolgus monkeys; assay: 3-month intravenous toxicology study; assay type: in vivo, cynomolgus monkey; details: after a post-dosing recovery period
[10] = test system: non-small cell lung cancer (NSCLC); details: added to docetaxel vs docetaxel plus placebo; cited from earlier work
patients with cancer = assay: Pooled safety across completed studies (RPLS, TMA); assay type: in vivo, human
Description: Severe proteinuria, nephrotic syndrome, and thrombotic microangiopathy (TMA) occurred more frequently in patients treated with ZALTRAP. In patients with mCRC, proteinuria was reported in 62% patients treated with ZALTRAP/FOLFIRI compared to 41% patients treated with placebo/FOLFIRI. Grade 3-4 proteinuria occurred in 8% of patients treated with ZALTRAP/FOLFIRI to 1% of patients treated with placebo/FOLFIRI [see Adverse Reactions (6.1)]. Nephrotic syndrome occurred in 2 patients (0.5%) treated with ZALTRAP/FOLFIRI compared to none of the patients treated with placebo/FOLFIRI. TMA was reported in 3 of 2258 patients with cancer enrolled across completed studies.
RPLS (also known as posterior reversible encephalopathy syndrome) was reported in 0.5% of 3795 patients treated with ZALTRAP monotherapy or in combination with chemotherapy.

pregnant rabbits = assay: Embryo-fetal toxicity study; assay type: in vivo, rabbit; details: every 3 days during organogenesis, intravenous, all doses tested
Description: Adverse embryo-fetal effects included increased incidences of postimplantation losses and external (including anasarca, umbilical hernia, diaphragmatic hernia and gastroschisis, cleft palate, ectrodactyly, and atresia), visceral (in the heart, great vessels, and arteries), and skeletal fetal malformations (including fused vertebrae, sternebrae, and ribs; supernumerary arches and ribs, and incomplete ossification). […] The incidence and severity of fetal anomalies increased with increasing dose.

[11] = test system: sexually mature cynomolgus monkeys; assay: 6-month repeat-dose toxicology study; assay type: in vivo, cynomolgus monkey
Experimental: Reversibility was observed within 18 weeks after cessation of treatment. Systemic exposure (AUC) with a 3 mg per kg per dose in monkeys was approximately 60% of the AUC in patients at the recommended dose.
Most ziv-aflibercept-related findings were noted from the lowest dose tested (3 mg per kg per dose) correlating to 60% of the AUC at the human recommended dose.

human PIGF-2 = molecular target: T1, human PIGF-2 (Homo sapiens, UniProt P49763); assay: Binding, equilibrium dissociation constant
T1 sequence (P49763 19-170 isoform P49763-3 limits assumed): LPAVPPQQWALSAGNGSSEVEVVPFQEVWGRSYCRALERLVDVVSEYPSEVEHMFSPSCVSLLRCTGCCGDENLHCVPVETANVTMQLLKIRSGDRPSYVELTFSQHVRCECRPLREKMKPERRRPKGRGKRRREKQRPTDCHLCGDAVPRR
Description: as §1

human VEGF-B = molecular target: T2, human VEGF-B (Homo sapiens, UniProt P49765); assay: Binding, equilibrium dissociation constant
T2 sequence (P49765 31-129 limits assumed): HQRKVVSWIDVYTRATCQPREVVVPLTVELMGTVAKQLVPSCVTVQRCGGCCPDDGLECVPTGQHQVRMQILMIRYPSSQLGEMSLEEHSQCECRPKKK
Description: as §1

[12] = Clinical pharmacokinetics, plasma free ziv-aflibercept by ELISA; assay type: in vivo, human
[13] = includes death due to disease progression

## ziv-aflibercept: recombinant fusion protein of VEGF-binding portions of human VEGF Receptors 1 and 2 fused to the Fc portion of human IgG1 (SEQ ID NO:1)
[1]; 2 patients
  Grade 3 GI fistula formation: 0.3%
[1]; Safety population N = 611
  Patients with any TEAE leading to death: 37 (6.1%) number (%) of patients
[1]; Study 1
  dose reduced and/or omitted: 17 % of patients
[1]; in vivo
  occurrence of grade 3-4 treatment emergent adverse events: 83.5%
  premature treatment discontinuation due to adverse events: 19.5%
  rate of permanent discontinuation of study treatment due to adverse events: 26.8%
[1]; [13]
  patients with adverse events that led to death after 30 days of last dosing: 12
  patients with adverse events that led to death within 30 days of last dosing: 28
[2]
  Grade 3-4 GI perforation events: 0.8%
  incidence of GI perforation (all grades): 0.8%
[3]; among APA-positive patients with sufficient samples
  neutralizing antibodies detected: 17 of 48
[3]; intravenous, 53/1687 patients
  incidence of APA development: 3.1%
[3]; versus the overall population
  mean free ziv-aflibercept trough concentrations in patients with positive neutralizing antibodies: lower
Endothelial cells
  proliferation of endothelial cells: inhibit the proliferation of endothelial cells
[4]; compared to patients weighing 50 to 100 kg
  increase in systemic exposure in patients weighing >=100 kg: 29%
[4]; cross-study comparisons and population pharmacokinetic analyses
  pharmacokinetic drug-drug interactions with irinotecan/SN-38 or 5-FU: No clinically important pharmacokinetic drug-drug interactions
[4]; data from 1507 patients
  exposure in patients with mild and moderate hepatic impairment vs normal hepatic function: similar
  exposure in patients with mild, moderate, and severe renal impairment vs normal renal function: similar
[4]; in vivo
  effect of age, race, and gender on the exposure of free ziv-aflibercept: did not have a clinically important effect
[5]
  growth of xenotransplanted colon tumors: inhibited the growth
[6]
  change in the mean QT interval from baseline (Fridericia correction): No large changes in the mean QT interval
[7]
  tolerability: well tolerated
rabbits; rabbit, in vivo
  full-thickness excisional and incisional skin wound model findings: reduced fibrous response, neovascularization, epidermal hyperplasia/re-epithelialization, and tensile strength
rabbits
  wound healing: delay in wound healing
rabbits; listed as ZALTRAP
  wound healing: impairs wound healing
[8]; 12 months from randomization
  estimated probability of being alive: 56.1%
[8]; 18 months from randomization
  estimated probability of being alive: 38.5%
[8]; ITT population, all patients, cutoff 7 FEB. 2011
  Median overall survival (95.34% CI): 13.50 months
[8]; ITT population, all patients, tumor assessment by the IRC, cutoff 6 MAY 2010
  Median PFS (99.99% CI): 6.90 months
[8]; by IRC, evaluable patient population N = 531
  Overall Response: Responders (Complete response or Partial response), %: 19.8%
[8]; compared to placebo, from hazard ratio
  reduction of risk of death: 18.3%
[8]; liver metastasis only group
  PFS HR (99.99% CI): 0.547
[8]; no liver metastasis, or other metastases group
  PFS HR (99.99% CI): 0.839
[9]
  reversibility of skeletal and nasal cavity effects: not reversible
[10]
  primary endpoint of improvement in overall survival: did not meet the pre-specified criteria
Patients with cancer; 3795 patients, monotherapy or in combination with chemotherapy
  RPLS (posterior reversible encephalopathy syndrome): 0.5%
Patients with cancer; patients with cancer enrolled across completed studies
  thrombotic microangiopathy (TMA): 3 of 2258
Pregnant rabbits
  embryo-fetal toxicity: produced embryo-fetal toxicity
Pregnant rabbits; listed as ZALTRAP
  embryo-fetal toxicity: embryotoxic and teratogenic
[11]; all doses tested including 3 mg per kg
  reproductive function and fertility: impaired reproductive function and fertility
[11]; monkeys
  reversibility of reproductive findings after cessation of treatment: ≤ 18 weeks
[11]; weekly/every two weeks intravenous for up to 6 months, from 3 mg per kg per dose
  repeat-dose toxicity findings: changes in the bone
Human PIGF-2
  Kd: 0.039 nM
Human VEGF-B
  Kd: 0.00192 nM
[12]; dose range of 2-9 mg/kg
  dose linearity of free ziv-aflibercept concentrations: linear pharmacokinetics
[12]; human, in vivo
  Steady state concentrations of free ziv-aflibercept reached: by the second dose
